In the supplement of paper PMC9170038:

Legend:
[1] = test system: K4 kissing-loop RNA reporter; assay: apparent KD of K4 kissing-loop reporter; higher = weaker reporter binding; conditions: Eterna round: R107;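 also: bound reporter read as fluorescence of individual clusters on recovered sequencing chips by microscopy, with normalized cluster intensities fitted with a binding model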
Method: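 RNA-MaP round R107: designed RNA switches with theophylline, tryptophan, arginine or FMN aptamers are transcribed on-chip within common flanks. They are titrated with a labelled K4 kissing-loop RNA reporter in RNA-MaP buffer (100 mM Tris pH 7.5, 80 mM KCl, 4 mM MgCl2), without ligand or with the indicated ligand. Median apparent KD per design.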

MS2 coat protein = assay: apparent KD of MS2 coat protein; designed switch direction (-1 OFF switch, 1 ON switch): -1; higher = weaker reporter binding
Method in brief: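 Apparent KD, taken as the median over clusters for each design, was obtained by curve-fitting normalised cluster fluorescence. Designed RNA switches had been transcribed on Illumina chips by stalled E. coli RNA polymerase and titrated with SNAP-549-labelled MS2 coat protein, doubling from 0.7 or 1.5 nM to 3 µM.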

[2] = input ligand: theophylline 20 uM
[3] = input ligand: tryptophan 2.4 mM
[4] = input ligand: microRNA oligo, concentration not stated

Sequence	apparent KD of K4 kissing-loop reporter ([1]; input ligand: FMN 200 uM)	apparent KD of K4 kissing-loop reporter ([1]; input ligand: arginine 13.2 mM)	apparent KD of K4 kissing-loop reporter ([1]; input ligand: none)	apparent KD of K4 kissing-loop reporter [1, 2]	apparent KD of K4 kissing-loop reporter [1, 3]	apparent KD of MS2 coat protein (MS2 coat protein; [4])	apparent KD of MS2 coat protein (MS2 coat protein; input ligand: FMN 200 uM)	apparent KD of MS2 coat protein (MS2 coat protein; input ligand: none)	apparent KD of MS2 coat protein (MS2 coat protein; Eterna round: R95, input ligand: microRNA oligo, concentration not stated)
CGCAGUGAUGUUGCGAGUAGCUACAGGGAAGGAGCGUGCUAGAGCACAGGUAGGUCGCCCUCGGGCAGUGAUGUUGCCAAAGGUU [Exclusion ARginine A GF 16]	77.1 nM	85.2 nM	79.8 nM	80.6 nM	68.3 nM				
AAACCAAUCAGAGGAUAUUCUUUAUUCGACAUAAAUUUCUAUAAAUUGCAGUGAUGUUGCAAUAUAGGAGAAGGCUGAUUGACAA [Exclusion FMN B Gf 12]	239 nM	199 nM	204 nM	229 nM	223 nM				
AGAUCUGUAACAGAUACCAGAGGACGAUGAUCGGACAGUGAUGUUAUCUGUCAGUCGUCGCUCCCUUGGCAGCUGUUACAGAUCA [Omei KL Theo B SS B v3]	78.1 nM	43.1 nM	73.7 nM	94.9 nM	65.2 nM				
CGCUUAGUGAUGUUUGAUUUGGCGCAUGCAGAGGAUAUAGGGUGCUUUAGAAGGCUGAGGAGUGCGCCGAGUGAUGUUCGGCGCU [Exclusion FMN A GF12]	183 nM	141 nM	212 nM	162 nM	166 nM				
AGACUACCACACUGUCAAUAGACAGUGAACUCGGAUAUGCUGAUAAGCAGAAGGAGUGAUGUUCCUAGGUAGUCAAUAAAAUAAU [FmnAX 13 C32]	160 nM	242 nM	376 nM	370 nM	359 nM				
UCGAGUUGACGAAAAGUCAACUCGUGAGAUACCAGUGACGAAAGUCACCCUUGGCAGCUCACUGCCAGUGAUGUUGGUAUAUAGA [#05 K4 Theophylline A Same State]	146 nM	80.8 nM	105 nM	217 nM	87.5 nM				
CUAUGGAAACAUAGUGAGCGGGAAACCGAUACCAGUAUGGAAACAUACCCUUGGCAGCGGAAUGCUCAAACGGAGUGAUGUUCCG [Theophylline A K4 22]	265 nM	216 nM	270 nM	235 nM	240 nM				
GUGGUACAGGCGGCCGCCACUAGUGAUGUUAGUGUUAGAAGAUAUAGUAUAUAUCGGCAUUUGUUUAGGACCGGGCCUGGUGGAG [aqzacmullin]	209 nM	166 nM	184 nM	189 nM	182 nM				
GCGAAAAGCAAAACGAGUGAUGUUCGAAAACGAGGACCGGUACGGCCGCCACUCGAAAACGUCUGCGUGGGAAACUAUGUAGAUG [SS Tryptophan A - 1]	511 nM	569 nM	698 nM	590 nM	302 nM				
GGGAGGAUUAAAUAAAUAAAUAAGAUAGAUACCAGUUGAGAGUAAGGCCCUUGGCAGCUAAAACGAGUGAUGUUCGAGUAAAUCC [Default title]	81.6 nM	88.8 nM	63 nM	147 nM	62.4 nM				
UGAUAGGACAGAAGGAGCGGGAGUGAUGUUCCCAAGGAUUGGUCUAGCAAAGCUGGACCCUCCCAGGUAGGUCGCUGUCCUAUCU [ArgBX 5 #SwitchBubble #StaticStem]	195 nM	223 nM	222 nM	182 nM	191 nM				
GAUGAUCGCGCGGCCGCCACUGGUCAGUGAUGUUGACAUUAAUGCGCCGAGUAGUAACGGCGCAGUAGGACCGGGCGCGAUGUAG [#13 K4 Tryptophan B Same State]	151 nM	139 nM	139 nM	198 nM	110 nM				
UGAUAGGACAGAAGGAGCGGUAGUGAUGUUGCCAAAAGUAUAAGGUGUCAAAAGACACCCUGCCAGGUAGGUCGCUGUCCUAUCU	134 nM	228 nM	187 nM	190 nM	137 nM				
AUCGUGCAGCUUUGCUGUACGAGUACAUGAGGAUCACCCAUGUAGGAUAUGGUACGCUUUGCGUGCUAGAAGGAUAUGCGAUUG [EX ENG3 1.46] (Eterna round: R96, puzzle: Exclusion NG 3)						36.5 nM			
GUAUAACAUGUAGGAUAUGCAUGGCAAAGCUAUGCAGAAGGACAUGAGGAUCACCCAUGUAAUAGCGUCUGCGUACAGAUGCAA [Mat - Exclusion NG 1 - Mod of JL - D92] (Eterna round: R96, puzzle: Exclusion NG 1)						31 nM	165 nM	33.9 nM	
UAAUGUAUAUAGGAUAUCUAGCUGGUAACAGCUAGAGAAGGAUGUACAUGAGGAUCACCCAUGUAAAUCUCAAU [Ex6/12-B2] (Eterna round: R97, puzzle: Exclusion 6)							32.5 nM	20.9 nM	
GGUCUACAUGAGGAUCACCCAUGUUAGGAUAUGCUUCGUCGGGCUAUACACGGCGGAUGUAGAAGGGACCUGGU [Eternabot (L1) Solution 83] (Eterna round: R97, puzzle: Exclusion 1)							16.7 nM	20.2 nM	
UAAAAUAGUGUGAGGAUAUGCUGGUCCUUGGAUCAGCAGAAGGCACAUGAGGAUCACCCAUGUAGUUAAUUUUA [Mat - Exclusion 4 - JL Mod - D23] (puzzle: Brourd's mod of Exclusion 4)									30.8 nM
CUGCUUUUGGUGAGGAUAUGCGGUAGCUGGGUACCGCAGAAGGCACAUGAGGAUCACCCAUGUGAUCUGAAAGC [Eternabot (L1) Solution 5] (Eterna round: R97, puzzle: Brourd's mod of Exclusion 4)							687 nM	61.2 nM	
GUAUAUGAUGUAGGAUAUACGAGACAUGAGGAUCACCCAUGUGAGGGAAGGAGAAGGAGAAGAGAGUAGAAGGAUAGAGUGUGA [Default title] (Eterna round: R96, puzzle: Exclusion NG 2)						45.7 nM	69.3 nM	80.6 nM	
UUAAUUCUGAUUCUUGAAAUACAUGAGGAUCACCCAUGUUCACAGGAUAUUGAUUAUGGUAGUAACAAGAAGGGUGUAUCAUAU [JR_ExcNG3_Sub039] (Eterna round: R96, puzzle: Exclusion NG 3)						64.8 nM			
UUUUUAUAUGAAGGAUAUACUUAACAUGAGGAUCACCCAUGUGGUGUUGUGAGUGAGUGAGUUUAGUAGAAGGUCAAUUAUUGU [JMF's solution 16] (Eterna round: R96, puzzle: Exclusion NG 2)						155 nM	2260 nM	394 nM	
